From the Human Domainome abundance scans (Beltran et al. 2025)
± gives the uncertainty stated by the source.

B1: Far upstream element-binding protein 1, residues 98 to 169; numbered along this chain, Q96AE4 (parent)
chain: RSVMTEEYKVPDGMVGFIIGRGGEQISRIQQESGCKIQIAPDSGGLPERSCMLTGTPESVQSAKRLLDQIVE
B2: Gamma-crystallin C, residues 91 to 170; numbered along this chain, P07315 (parent)
chain: RLYEREDHKGLMMELSEDCPSIQDRFHLSEIRSLHVLEGCWVLYELPNYRGRQYLLRPQEYRRCQDWGAMDAKAGSLRRV

Variants of: B1
Assay: abundance fitness (aPCA) (normalised: wild type 0, dead -1); higher = more abundant; growth selection in yeast, the domain comes from the species named
Conditions: Homo sapiens

Row | Variant | abundance fitness
1 | I29C | -0.179 ± 0.041
2 | I29H | -0.423 ± 0.11
3 | A63L | -0.41 ± 0.028
4 | A63I | -0.328 ± 0.043
5 | A63Y | -1.05 ± 0.11
6 | S59E | 0.012 ± 0.03
7 | S59G | -0.046 ± 0.023
8 | S59C | -0.071 ± 0.037
9 | R65I | -0.051 ± 0.038
10 | R65H | -0.025 ± 0.036
11 | R65S | -0.034 ± 0.027
12 | R65Y | -0.053 ± 0.039
13 | S33D | -0.868 ± 0.063
14 | S33H | -0.308 ± 0.046
15 | S33L | -0.325 ± 0.028
16 | R1C | -0.013 ± 0.033
17 | R1Q | -0.513 ± 0.14
18 | R1K | -0.081 ± 0.035
19 | C35Y | -1.09 ± 0.07
20 | C35I | -0.261 ± 0.033
21 | M14H | -0.12 ± 0.044
22 | M14I | -0.037 ± 0.043
23 | M14C | -0.011 ± 0.037
24 | Q69V | -0.014 ± 0.026

Row | Variant | abundance fitness
25 | Q69F | -0.097 ± 0.036
26 | Q69T | -0.029 ± 0.03
27 | Q69C | -0.079 ± 0.033
28 | Q69H | -0.041 ± 0.047
29 | G45R | -0.078 ± 0.026
30 | G45T | -0.074 ± 0.036
31 | G45S | -0.027 ± 0.03
32 | E7C | 0.061 ± 0.11
33 | E7A | -0.085 ± 0.3
34 | R28I | -0.215 ± 0.059
35 | R28D | -0.016 ± 0.041
36 | R28H | -0.021 ± 0.057
37 | R28W | -0.104 ± 0.032
38 | R28Q | -0.033 ± 0.038
39 | T5D | -0.149 ± 0.04
40 | S62Q | -0.019 ± 0.031
41 | S62C | 0.025 ± 0.038
42 | S62N | -0.005 ± 0.041
43 | T54L | -0.087 ± 0.029
44 | T54K | 0.01 ± 0.036
45 | T54P | -1.23 ± 0.083
46 | T54N | -0.069 ± 0.05
47 | T54Q | -0.067 ± 0.043
48 | T54C | -0.085 ± 0.045

Row | Variant | abundance fitness
49 | T54G | -0.282 ± 0.028
50 | P57E | -0.008 ± 0.031
51 | P57Q | 0.033 ± 0.034
52 | P57C | -0.111 ± 0.049
53 | P57G | -0.025 ± 0.026
54 | P57K | -0.044 ± 0.04
55 | G16E | 0.009 ± 0.03
56 | G16C | -0.083 ± 0.044
57 | G16L | -0.102 ± 0.029
58 | G16V | -0.108 ± 0.027
59 | G16H | -0.064 ± 0.048
60 | G16A | -0.023 ± 0.029
61 | G16P | 0.033 ± 0.034
62 | G16R | -0.007 ± 0.023
63 | I37K | -0.911 ± 0.08
64 | I37R | -1.05 ± 0.04
65 | I37T | -0.48 ± 0.041
66 | Q61I | -0.029 ± 0.046
67 | Q61E | 0.052 ± 0.03
68 | Q61V | -0.035 ± 0.027
69 | K64F | -0.254 ± 0.043
70 | K64I | -0.097 ± 0.04
71 | K64Q | -0.104 ± 0.033

Variants of: B2
Assay: as above
Conditions: Homo sapiens

Row | Variant | abundance fitness
72 | Y3F | -0.238 ± 0.21
73 | Y3H | -0.598 ± 0.24
74 | Y3L | -1.04 ± 0.49
75 | Y3W | -0.324 ± 0.095
76 | Y3V | -0.949 ± 0.18
77 | Y3C | -0.64 ± 0.41
78 | Y3A | -0.771 ± 0.37
79 | Y3R | -0.846 ± 0.27
80 | Y3K | -0.948 ± 0.27
81 | Y3Q | -0.88 ± 0.35
82 | Y3G | -0.955 ± 0.2
83 | Y3P | -0.807 ± 0.38
84 | Y3N | -0.633 ± 0.43
85 | L2P | -1.13 ± 0.48
86 | L2M | -0.346 ± 0.042
87 | L2W | -0.847 ± 0.22
88 | L2Y | -0.936 ± 0.41
89 | L2A | -0.494 ± 0.13
90 | L2T | -0.622 ± 0.31
91 | L2C | -0.777 ± 0.34
92 | L2G | -0.922 ± 0.2
93 | L2V | -0.714 ± 0.18
94 | R5H | 0.185 ± 0.15
95 | R5S | -0.144 ± 0.14

Row | Variant | abundance fitness
96 | R5G | -0.105 ± 0.063
97 | R5A | -0.309 ± 0.16
98 | R5W | -0.203 ± 0.092
99 | R5T | -0.747 ± 0.33
100 | R5D | -0.175 ± 0.12
101 | R5L | -0.029 ± 0.084
102 | R5M | 0.047 ± 0.13
103 | R5P | -0.788 ± 0.32
104 | R5V | -0.429 ± 0.079
105 | R1S | -0.936 ± 0.17
106 | R1I | 0.241 ± 0.42
107 | R1G | -0.879 ± 0.15
108 | R1D | -0.857 ± 0.34
109 | R1V | -0.381 ± 0.17
110 | R1T | -0.314 ± 0.17
111 | R1E | -0.756 ± 0.22
112 | R1K | -0.072 ± 0.21
113 | R1W | -0.404 ± 0.27
114 | K9D | -0.254 ± 0.083
115 | K9A | -0.129 ± 0.053
116 | K9I | -0.68 ± 0.17
117 | K9G | -0.171 ± 0.047
118 | K9F | -0.559 ± 0.25
119 | K9E | 0.017 ± 0.073

Row | Variant | abundance fitness
120 | K9H | -0.174 ± 0.11
121 | K9C | -0.103 ± 0.11
122 | D7M | -0.241 ± 0.076
123 | D7C | -0.237 ± 0.099
124 | D7T | -0.995 ± 0.26
125 | D7H | -0.221 ± 0.27
126 | D7Q | -0.273 ± 0.14
127 | D7K | -0.578 ± 0.15
128 | D7P | -0.846 ± 0.2
129 | D7Y | -0.098 ± 0.16
130 | D7F | -0.203 ± 0.17
131 | D7S | -0.277 ± 0.064
132 | D7E | -0.03 ± 0.093
133 | D7R | -0.505 ± 0.085
134 | D7G | -0.186 ± 0.057
135 | D7V | -0.936 ± 0.12
136 | D7L | -0.554 ± 0.078
137 | D7A | -0.248 ± 0.061
138 | E4T | -0.123 ± 0.094
139 | E4M | -0.019 ± 0.26
140 | E4K | -0.375 ± 0.14
141 | E4P | -0.341 ± 0.11
142 | E4L | -0.339 ± 0.083
143 | E4N | -0.261 ± 0.12

Row | Variant | abundance fitness
144 | E4F | -0.347 ± 0.2
145 | E4H | -0.571 ± 0.15
146 | E4D | -0.153 ± 0.098
147 | E4A | -0.129 ± 0.063
148 | E4I | -0.746 ± 0.22
149 | E4C | -0.291 ± 0.13
150 | E4G | -0.348 ± 0.063
151 | E4W | -0.78 ± 0.19
152 | E4S | -0.027 ± 0.057
153 | E4Y | -0.7 ± 0.25
154 | E4R | -0.582 ± 0.1
155 | E6W | -0.718 ± 0.15
156 | E6N | -0.416 ± 0.43
157 | E6A | -0.284 ± 0.082
158 | E6Y | -0.64 ± 0.41
159 | E6G | -0.803 ± 0.1
160 | E6T | -0.362 ± 0.21
161 | E6M | -0.698 ± 0.48
162 | E6D | -0.538 ± 0.19
163 | E6L | -0.892 ± 0.32
164 | E6Q | -0.445 ± 0.41
165 | E6R | -0.642 ± 0.096
166 | E6V | -0.53 ± 0.15
167 | H8Y | 0.111 ± 0.1
